Assay results published in PMC6508782.

Target: Hcf106 G6CV14C (Pisum sativum)
Assay: cross-linking; disulfide cross-linking with 1 mM CuP for 5 min of [3H]Hcf106 Cys variants integrated into NEM-pretreated thylakoid; non-reducing SDS-PAGE, fluorography

stoichiometry N: < 8
Substance: Hcf106 G6CV14C (natural protein)
